We go through eleven molecules from patent publication US20210403552A1 (SHANGHAI GENBASE BIOTECHNOLOGY, published 2021).

What is called EC50 is the concentration at which the effect is half-maximal. A high value points to weaker potency.

Assay [1] has as its target T1, human CLDN18.2 (human).
T1 construct: over-expressed on HEK293T or OCUM-1 cells by lentivirus; KATO-III and NUGC4 gastric cancer cells express it naturally; also called hCLDN18.2; hCLDNA18.2
As to the kind of experiment: imaging cytometry (% fluorescent cells), HEK293-hCLDN18.2 cells. From the text: (§1) HEK293T-hCLDN18.2 and OCUM-1-hCLDN18.2 expressing human CLDN18.2 (hCLDN18.2), or HEK293T-mCLDN18.2 expressing mouse CLDN18.2 (mCLDN18.2) and the corresponding negative control cell line HEK293T were used; or HEK293T-hCLDN18.1 and CHOS-hCLDN18.1 expressing human CLDN18.1 (hCLDN18.1) were used. DyLight488 goat anti-mouse IgG (Abcam, Catalog No. ab97015) or DyLight488 goat anti-human IgG (Abcam, Catalog No. ab97003) was used as secondary antibody. Binding curves were generated by using the following method.
(§2) 10,000 cells were plated in 100 μL of DMEM containing 10% FBS per well in a flat-bottomed 96-well plate. After the cells adhered or were settled to the bottom of the wells overnight, the supernatant was removed on the next day. 3-Fold gradient dilution of antibody was performed by diluting 1/3 of the total volume (i.e., 100 μL) in 200 μL of DMEM. 100 μL of the diluted antibody (the supernatants of fused clones or subclones was used in the screening) was added to each well of the cell plate, 100 μL of DMEM was added to the corresponding negative control well, and incubation was carried out for 1 hour at room temperature. After removing the supernatant, 100 μL of secondary antibody (5 μg/mL, diluted in DMEM) was added to each well, and incubated at room temperature for 0.5 hours. The supernatant was removed after staining, followed by washing with PBS once. 100 μL of PBS was added to each well, and then reading was carried out on the cytometer.
(§3) A full-field scanning cytometer (Nexcelom, Celigo® Image Cytometer) was used to measure the readings of the experimental plate. During the measurement, high-speed scanning imaging of the cells in the well was simultaneously performed in the green fluorescent channel corresponding to the secondary antibody and in the bright field channel. The cells that bound the antibody were counted in the image obtained from the green fluorescent channel under the parameters set in accordance with the morphology and fluorescence intensity of the fluorescently labeled cells, and the adhered cells were counted in the image obtained from the bright field channel under the parameters set in accordance with the morphology of the cells.

The target in the next assay is T2, human CLDN18.1 (human, UniProt P56856 1-261).
T2 construct: over-expressed on HEK293T or CHOS cells by lentivirus; also called hCLDN18.1
As to the kind of experiment: imaging cytometry, CHOS-hCLDN18.1 cells.
Source text: as §1, §2, §3

Assay [2] concerns the target T1, human CLDN18.2. As to the kind of experiment: imaging cytometry (% fluorescent cells), OCUM1-hCLDN18.2 cells.
Source text: as §1, §2, §3

A further assay has as its target T3, mouse CLDN18.2 (mouse, UniProt P56857 10-264).
T3 construct: over-expressed on HEK293T cells by lentivirus; also called mCLDN18.2; murine CLDN18.2
T3 chain: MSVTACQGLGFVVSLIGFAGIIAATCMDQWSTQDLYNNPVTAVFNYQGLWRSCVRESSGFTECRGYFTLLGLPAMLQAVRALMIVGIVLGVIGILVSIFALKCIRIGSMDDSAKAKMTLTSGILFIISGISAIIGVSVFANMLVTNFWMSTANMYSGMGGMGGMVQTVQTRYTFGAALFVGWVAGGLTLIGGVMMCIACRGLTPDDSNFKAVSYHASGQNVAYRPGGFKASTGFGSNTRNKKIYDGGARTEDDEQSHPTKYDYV
As to the kind of experiment: imaging cytometry (% fluorescent cells), HEK293-mCLDN18.2 cells.
Source text: as §1, §2, §3

For assay [3], the target named is T1, human CLDN18.2. As to the kind of experiment: imaging cytometry (% fluorescent cells), HEK293T-hCLDN18.2 cells. As to the method: as §2
as §3, with “cells. […] The data analysis was performed using GraphPad.” for “cells.”

The target in assay [4] is T1, human CLDN18.2. As to the kind of experiment: cell-based or functional assay.
Assay [5] deals with T1, human CLDN18.2. As to the kind of experiment: cell-based or functional assay. The source holds these as a separate data set.
Assay [6] deals with T1, human CLDN18.2. As to the kind of experiment: cell-based or functional assay. The source holds these as a separate data set.

T2 sequence (P56856 whole entry): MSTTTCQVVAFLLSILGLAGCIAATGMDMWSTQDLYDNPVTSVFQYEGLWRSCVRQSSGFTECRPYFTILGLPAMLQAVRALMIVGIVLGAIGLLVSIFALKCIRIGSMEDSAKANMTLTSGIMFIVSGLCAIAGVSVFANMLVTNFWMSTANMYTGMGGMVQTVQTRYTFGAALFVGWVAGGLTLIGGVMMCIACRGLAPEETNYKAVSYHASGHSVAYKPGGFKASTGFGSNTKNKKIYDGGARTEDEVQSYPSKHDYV

B1: 2F12 (antibody, V domains shown)
VH: EVQLVESGGGLVKPGGSLKLSCAASGFTFSDYGIHWVRQAPEKGLEWVAYISSGSSTIYYADTVKGRFTISRDNAKNTLFLQMTSLRSEDTAIYYCAKWDRGNCFDYWGQGTTLTVSS
VL: DIVLTQSPSSLTVTAGEKVTMSCKSSQSLLNSGNQKKYLTWYQQKVGQPPKLLIYWASIRECGVPDRFTGSGSGTDFILTISSVQAEDLAVYYCQNAYSYPLTFGAGTKLELK
notes: murine monoclonal antibody purified from hybridoma culture supernatant
For B1, the EC50 with human CLDN18.2 [1] is 0.041 µg/mL; with human CLDN18.2 [2], 0.186 µg/mL; in the assay with mouse CLDN18.2, 0.036 µg/mL. For the same molecule, in the assay with human CLDN18.1, the binding result is “no binding”.

B2: 10B11 (antibody, V domains shown)
VH: QVQMKESGAELVKPGASVKISCKASGYAFSTYWMDWVKQRPGKGLEWIGQIYPGNGDTNYNGKFKGKATLTADKSSSTADMQLSSLTSEDSAVYFCARLGYGNSFTYWGQGTLVTVSA
VL: DIQVTQSPSSLTVTAGEKVTMSCKSSQSLLNSGNQKNYLTWYQQKPGQPPKLLIYWASTRESGVPDRFTGSGFGTDFTLTISSVQAEDLAVYYCQNAYFYPFTFGSGTKLEIK
notes: as for B1
On to B2, for which the values for the EC50 with human CLDN18.2 [1], in the assay with human CLDN18.2 [2] and in the assay with mouse CLDN18.2 were 0.038 µg/mL, 0.135 µg/mL and 0.035 µg/mL, respectively. Also, the binding result in the assay with human CLDN18.1 was “no binding”.

B3: 44A8 (antibody, V domains shown)
VH: EVRLQQSGPELVKPGASVKMSCKASGYTFTDYNMHWVKQSHGKSLEWIGYINPKNGGIRYNQKFTGKATLTVNKSSSTAYMELRSLTSEDSAVYYCARGGYYGNTLDNWGQGTSVTVSS
VL: DIVMTQSPSSLTLTAGEKVTMSCKSSQSLLNSGNQKNYLTWYQQKPGQPPKLLIYWASTSESGVPDRFTGSGSGTDFTLTISSVQAEDLAIYYCQNAYFYPWTFGGGTKLEIK
notes: as for B1
For B3, the EC50 with human CLDN18.2 [1] worked out at 0.034 µg/mL; in the assay with human CLDN18.2 [2], 0.097 µg/mL; with mouse CLDN18.2, 0.026 µg/mL. In the assay with human CLDN18.1, the binding result is “no binding”.

B4: 37B1 (antibody, V domains shown)
VH: EVRLQQSGPELVKPGASVKMSCKASGYSFTDYNMHWVKQSHGKSPEWVGYINPNKGGTGYNQKFKGKATLTVNKSSSTANMELRSLTSEDSAVYYCARIWYGNSFAYWGQGTLVTVSA
VL: DVVMTQSPSSLTVTAGEKVTMSCKSSQSLLNSGNQKNYLTWYQQKPGQPPKLLIYWASTRESGVPDRFTGSGSGTDFTLTISSVQAEDLAVYFCQNDYFYPFTFGSGTKLEIK
notes: as for B1
For B4, the 50% effective concentration (EC50) with human CLDN18.2 [1] worked out at 0.04 µg/mL; in the assay with human CLDN18.2 [2], 0.146 µg/mL; with mouse CLDN18.2, 0.032 µg/mL. Further, in the assay with human CLDN18.1, the binding result is on record as “no binding”.

B5: 44F7 (antibody, V domains shown)
VH: QVQLQQSGAELVRPGASVKMSCKASGYTFTSYNMHWVKQAPRQGLEWIGTIYPGNGDTSYNQKFKGKATLTVDKSSSTAYMQLSSLTSEDSAVYFCARGGYYGNSLDYWGQGTTLTVSS
VL: DIQMTQSPSSLTVTAGEKVTMSCKSSQSLLNSGNQKNYLTWYQQKPGQPPKLLIYWASTRESGVPDRFTGSGSGTDFTLTISSVQAEDLAVYYCQNAYYYPFTFGSGTKLEIK
notes: as for B1
Regarding B5, the values for the EC50 in the assay with human CLDN18.2 [1], in the assay with human CLDN18.2 [2] and with mouse CLDN18.2 were 0.028 µg/mL, 0.092 µg/mL and 0.026 µg/mL, respectively. Besides, the binding result in the assay with human CLDN18.1 was “no binding”.

B6: 27B5 (antibody, V domains shown)
VH: QVQLQQPGTELVKPGASVKLSCKASGYTFTSYWMHWVKQRPGQGLEWIGNIHPSNGGSNHNEKFKSKATLTVDKSSSTAYMQLSSLTSEDSAVYYCAPIYYGNSLAYWGHGTLVTVSA
VL: DVVMTQSPSSLTVTAGEKVTMSCKSSQSLLNSGNQKNYLTWYQQKPGQPPKLLLYWASTRESGVPDRFTGSGSGTDFTLTISSVQAEDLAVYYCQNSYFYPFTFGSGTKLEIK
notes: as for B1
As to B6, the EC50 with human CLDN18.2 [1] was determined as 0.041 µg/mL; with human CLDN18.2 [2] it was 0.142 µg/mL; with mouse CLDN18.2 it was 0.033 µg/mL. In the assay with human CLDN18.1, the binding result is reported as “no binding”.

B7: 9F3-chIgG1 (antibody, V domains shown)
VH: EVRLQQSGPELVKPGASVKIPCKASGYKFTDYNMDWVKQSHGKSLEWIGEINPNNGGTIYNQKFKGKATLTVDKSSSTAYMELRSLTSEDTAVYYCARIYYGNSFAYWGQGTLVTVSS
VL: DIVMTQSPSSLTVTAGEKVTMSCKSSQSLLNSGNLKNYLTWYQQKPGQPPKLLIYWASTRESGVPDRFTGSGSGTDFTLTISSVQAEDLAVYYCQNDYFYPLTFGAGTKLEIKR
notes: human-mouse chimeric antibody, human IgG1/kappa constant regions
As for B7, a half-maximal effect with human CLDN18.2 [3] (EC50) was put at 0.104 µg/mL. Also, in the assay with human CLDN18.2 [4], the “CDC EC50, HEK293T-hCLDN18.2 target cells, human serum” value (“CDC EC50” below) was 1.86 µg/mL. The “ADCC EC50, HEK293T-hCLDN18.2 target cells, human PBMC effectors” value (from here on “ADCC EC50”) with human CLDN18.2 [5] is 0.008 µg/mL.

B8: 9F3 (antibody, V domains shown)
VH: EVRLQQSGPELVKPGASVKIPCKASGYKFTDYNMDWVKQSHGKSLEWIGEINPNNGGTIYNQKFKGKATLTVDKSSSTAYMELRSLTSEDTAVYYCARIYYGNSFAYWGQGTLVTVSS
VL: DIVMTQSPSSLTVTAGEKVTMSCKSSQSLLNSGNLKNYLTWYQQKPGQPPKLLIYWASTRESGVPDRFTGSGSGTDFTLTISSVQAEDLAVYYCQNDYFYPLTFGAGTKLEIK
notes: as for B1
As to B8, the values for the EC50 with human CLDN18.2 [1], with human CLDN18.2 [2] and with mouse CLDN18.2 were 0.053 µg/mL, 0.15 µg/mL and 0.043 µg/mL, respectively. Also, in the assay with human CLDN18.1, the binding result is on record as “no binding”.

B9: 10B11-chIgG1 (antibody, V domains shown)
VH: QVQMKESGAELVKPGASVKISCKASGYAFSTYWMDWVKQRPGKGLEWIGQIYPGNGDTNYNGKFKGKATLTADKSSSTADMQLSSLTSEDSAVYFCARLGYGNSFTYWGQGTLVTVSA
VL: DIQVTQSPSSLTVTAGEKVTMSCKSSQSLLNSGNQKNYLTWYQQKPGQPPKLLIYWASTRESGVPDRFTGSGFGTDFTLTISSVQAEDLAVYYCQNAYFYPFTFGSGTKLEIKR
notes: as for B7
On to B9, for which the EC50 with human CLDN18.2 [3] is 0.03 µg/mL. In the assay with human CLDN18.2 [4], the “CDC EC50” value stood at 1.65 µg/mL. In the assay with human CLDN18.2 [5], the “ADCC EC50” value is 0.001 µg/mL.

B10: 5F9-chIgG1 (antibody, V domains shown)
VH: QVQLQQSGAELVKPGASVKLSCKASGYTFTSYWMHWVKQRPGQGLEWIGMIHPNSVSTNYNEKFKSKATLTVDKSSSTAYMQLSSLTSEDSAVYYCAVYFDYWGQGTTLTVSS
VL: DIQVTQSPSSLSASLGERVSLTCRASQDIGSSLNWLQQEPDGTIKRLIYASSSLNSGVPKRFSVSRSGSDYSLTISSLESEDFVDYYCLQYATSPPTFGGGTKLEIKR
notes: as for B7
B10: the “Internalization percentage (%), HEK293T-hCLDN18.2 cells, flow cytometry, 10 µg/mL antibody” value with human CLDN18.2 [6] amounted to 9.3%. In the assay with human CLDN18.2 [3], this molecule returned an EC50 of 0.283 µg/mL. The “CDC EC50” value in the assay with human CLDN18.2 [4] came out at 5.25 µg/mL. Moreover, the “ADCC EC50” value with human CLDN18.2 [5] was found to be 0.0197 µg/mL.

B11: 1D10-chIgG1 (antibody, V domains shown)
VH: QVQLQQPGAELVKPGASVKLSCKASGYTFTSYWMHWVKQRPGQGLEWIGMIYPNSGSINYNEKFKNKATLTVDKSSSTAYMQLSSLTSEDSAVYFCSVYFDYWGQGTTLTVSS
VL: DIQGTQSPSSLSASLGERVSLTCRASQDIGSSLNWLQQEPDGTIKRLIYATSSLDSGVPKRFSVSRSGSDYSLTISSLESEDFVDYYCLQYASSPPTFGGGTKLEIKR
For B11, in the assay with human CLDN18.2 [6], the “Internalization percentage (%), HEK293T-hCLDN18.2 cells, flow cytometry, 10 µg/mL antibody” value came to 28.7%.
